Test results from US20110318356A1 (Novo Nordisk, published 2011).

target: T1, recombinant full length human tissue factor pathway inhibitor (TFPI) (human, UniProt P10646 29-304); test: SPR (Biacore), recombinant human TFPI
T1 construct: also called TFPI1; human TFPI

| Kd [nM] | Binder |
| --- | --- |
| 0.63 | HzTFPI4F36 LC-FR2 (antibody, human IgG4 S228P, kappa, name in Kabat numbering, Mutated CDR-grafted light chain with wild type CDR-grafted heavy chain; Kabat numbering; also called patch mutant in LC FR2) heavy: not shown light: DIVMTQTPLSLSVTPGQPASISCKSSQSLLESDGKTYLNWLLQRPGESPKLLIYLVSILDSGVPDRFSGSGSGTDFTLKISRVEAEDVGVYYCLQATHFPQTFGGGTKVEIKRTVAAPSVFIFPPSDEQLKSGTASVVCLLNNFYPREAKVQWKVDNALQSGNSQESVTEQDSKDSTYSLSSTLTLSKADYEKHKVYACEVTHQGLSSPVTKSFNRGEC |
| > 0.03 | HzTFPI4F36 LC-K39R, Q42E, Q45K (antibody, human IgG4 S228P, kappa, name in Kabat numbering, V domains shown, Mutated CDR-grafted light chain with wild type CDR-grafted heavy chain; Kabat numbering) VH: EVQLVESGGGLVKPGGSLRLSCAASGFTFSNYAMSWVRQAPGKGLEWVSTISRSGSYSYYADSVKGRFTISRDNAKNSLYLQMNSLRAEDTAVYYCARLGGYDEGDAMDSWGQGTTVTVSS VL: DIVMTQTPLSLSVTPGQPASISCKSSQSLLESDGKTYLNWYLQRPGESPKLLIYLVSILDSGVPDRFSGSGSGTDFTLKISRVEAEDVGVYYCLQATHFPQTFGGGTKVEIKR |

target: T1, recombinant full length human tissue …; test: SPR (Biacore), recombinant human TFPI; remark: another data set of the same source

| Kd [nM] | Binder |
| --- | --- |
| 2.2 | HzTFPI4F36 HC-A60P (antibody, human IgG4 S228P, kappa, name in Kabat numbering, V domains shown, Mutated CDR-grafted heavy chain with wild type CDR-grafted light chain; Kabat numbering) VH: EVQLVESGGGLVKPGGSLRLSCAASGFTFSNYAMSWVRQAPGKGLEWVSTISRSGSYSYYPDSVKGRFTISRDNAKNSLYLQMNSLRAEDTAVYYCARLGGYDEGDAMDSWGQGTTVTVSS VL: DIVMTQTPLSLSVTPGQPASISCKSSQSLLESDGKTYLNWYLQKPGQSPQLLIYLVSILDSGVPDRFSGSGSGTDFTLKISRVEAEDVGVYYCLQATHFPQTFGGGTKVEIKR |
| 0.03 | HzTFPI4F36 HC-G44R, A60P, K64Q (antibody, human IgG4 S228P, kappa, name in Kabat numbering, V domains shown, Mutated CDR-grafted heavy chain with wild type CDR-grafted light chain; Kabat numbering) VH: EVQLVESGGGLVKPGGSLRLSCAASGFTFSNYAMSWVRQAPGKRLEWVSTISRSGSYSYYPDSVQGRFTISRDNAKNSLYLQMNSLRAEDTAVYYCARLGGYDEGDAMDSWGQGTTVTVSS VL: DIVMTQTPLSLSVTPGQPASISCKSSQSLLESDGKTYLNWYLQKPGQSPQLLIYLVSILDSGVPDRFSGSGSGTDFTLKISRVEAEDVGVYYCLQATHFPQTFGGGTKVEIKR |
| 5.3 | HzTFPI4F36 HC-FR3 (antibody, human IgG4 S228P, kappa, name in Kabat numbering, V domains shown, Mutated CDR-grafted heavy chain with wild type CDR-grafted light chain; Kabat numbering) VH: EVQLVESGGGLVKPGGSLRLSCAASGFTFSNYAMSWVRQAPGKGLEWVSTISRSGSYSYYADSVKGRFTISRDNAKNSLYLQMSSLRSEDTAMYYCARLGGYDEGDAMDSWGQGTTVTVSS VL: DIVMTQTPLSLSVTPGQPASISCKSSQSLLESDGKTYLNWYLQKPGQSPQLLIYLVSILDSGVPDRFSGSGSGTDFTLKISRVEAEDVGVYYCLQATHFPQTFGGGTKVEIKR |
| 4.1 | HzTFPI4F36 HC-FR3, A93T (antibody, human IgG4 S228P, kappa, name in Kabat numbering, V domains shown, Mutated CDR-grafted heavy chain with wild type CDR-grafted light chain; Kabat numbering) VH: EVQLVESGGGLVKPGGSLRLSCAASGFTFSNYAMSWVRQAPGKGLEWVSTISRSGSYSYYADSVKGRFTISRDNAKNSLYLQMSSLRSEDTAMYYCTRLGGYDEGDAMDSWGQGTTVTVSS VL: DIVMTQTPLSLSVTPGQPASISCKSSQSLLESDGKTYLNWYLQKPGQSPQLLIYLVSILDSGVPDRFSGSGSGTDFTLKISRVEAEDVGVYYCLQATHFPQTFGGGTKVEIKR |
| 1.3 | HzTFPI4F36 HC-FR2, S49A (antibody, human IgG4 S228P, kappa, name in Kabat numbering, V domains shown, Mutated CDR-grafted heavy chain with wild type CDR-grafted light chain; Kabat numbering) VH: EVQLVESGGGLVKPGGSLRLSCAASGFTFSNYAMSWVRQTPEKRLEWVATISRSGSYSYYADSVKGRFTISRDNAKNSLYLQMNSLRAEDTAVYYCARLGGYDEGDAMDSWGQGTTVTVSS VL: DIVMTQTPLSLSVTPGQPASISCKSSQSLLESDGKTYLNWYLQKPGQSPQLLIYLVSILDSGVPDRFSGSGSGTDFTLKISRVEAEDVGVYYCLQATHFPQTFGGGTKVEIKR |
| 7.7 | HzTFPI4F36 HC-FR3, S77T (antibody, human IgG4 S228P, kappa, name in Kabat numbering, V domains shown, Mutated CDR-grafted heavy chain with wild type CDR-grafted light chain; Kabat numbering) VH: EVQLVESGGGLVKPGGSLRLSCAASGFTFSNYAMSWVRQAPGKGLEWVSTISRSGSYSYYADSVKGRFTISRDNAKNTLYLQMSSLRSEDTAMYYCARLGGYDEGDAMDSWGQGTTVTVSS VL: DIVMTQTPLSLSVTPGQPASISCKSSQSLLESDGKTYLNWYLQKPGQSPQLLIYLVSILDSGVPDRFSGSGSGTDFTLKISRVEAEDVGVYYCLQATHFPQTFGGGTKVEIKR |
| 1.5 | HzTFPI4F36 HC-S77T (antibody, human IgG4 S228P, kappa, name in Kabat numbering, V domains shown, Mutated CDR-grafted heavy chain with wild type CDR-grafted light chain; Kabat numbering) VH: EVQLVESGGGLVKPGGSLRLSCAASGFTFSNYAMSWVRQAPGKGLEWVSTISRSGSYSYYADSVKGRFTISRDNAKNTLYLQMNSLRAEDTAVYYCARLGGYDEGDAMDSWGQGTTVTVSS VL: DIVMTQTPLSLSVTPGQPASISCKSSQSLLESDGKTYLNWYLQKPGQSPQLLIYLVSILDSGVPDRFSGSGSGTDFTLKISRVEAEDVGVYYCLQATHFPQTFGGGTKVEIKR |
| 0.9 | HzTFPI4F36 HC-KABAT CDR2 (antibody, human IgG4 S228P, kappa, name in Kabat numbering, V domains shown, Mutated CDR-grafted heavy chain with wild type CDR-grafted light chain; Kabat numbering) VH: EVQLVESGGGLVKPGGSLRLSCAASGFTFSNYAMSWVRQAPGKGLEWVSTISRSGSYSYFPDSVQGRFTISRDNAKNSLYLQMNSLRAEDTAVYYCARLGGYDEGDAMDSWGQGTTVTVSS VL: DIVMTQTPLSLSVTPGQPASISCKSSQSLLESDGKTYLNWYLQKPGQSPQLLIYLVSILDSGVPDRFSGSGSGTDFTLKISRVEAEDVGVYYCLQATHFPQTFGGGTKVEIKR |
| 2.3 | HzTFPI4F36 HC-G44R (antibody, human IgG4 S228P, kappa, name in Kabat numbering, V domains shown, Mutated CDR-grafted heavy chain with wild type CDR-grafted light chain; Kabat numbering) VH: EVQLVESGGGLVKPGGSLRLSCAASGFTFSNYAMSWVRQAPGKRLEWVSTISRSGSYSYYADSVKGRFTISRDNAKNSLYLQMNSLRAEDTAVYYCARLGGYDEGDAMDSWGQGTTVTVSS VL: DIVMTQTPLSLSVTPGQPASISCKSSQSLLESDGKTYLNWYLQKPGQSPQLLIYLVSILDSGVPDRFSGSGSGTDFTLKISRVEAEDVGVYYCLQATHFPQTFGGGTKVEIKR |
| > 0.03 | HzTFPI4F36 HC-G42E, G44R, S49A CDR2 (antibody, human IgG4 S228P, kappa, name in Kabat numbering, V domains shown, Mutated CDR-grafted heavy chain with wild type CDR-grafted light chain; Kabat numbering) VH: EVQLVESGGGLVKPGGSLRLSCAASGFTFSNYAMSWVRQAPEKRLEWVATISRSGSYSYFPDSVQGRFTISRDNAKNSLYLQMNSLRAEDTAVYYCARLGGYDEGDAMDSWGQGTTVTVSS VL: DIVMTQTPLSLSVTPGQPASISCKSSQSLLESDGKTYLNWYLQKPGQSPQLLIYLVSILDSGVPDRFSGSGSGTDFTLKISRVEAEDVGVYYCLQATHFPQTFGGGTKVEIKR |
| 2.7 | HzTFPI4F36 HC-A93T (antibody, human IgG4 S228P, kappa, name in Kabat numbering, V domains shown, Mutated CDR-grafted heavy chain with wild type CDR-grafted light chain; Kabat numbering) VH: EVQLVESGGGLVKPGGSLRLSCAASGFTFSNYAMSWVRQAPGKGLEWVSTISRSGSYSYYADSVKGRFTISRDNAKNSLYLQMNSLRAEDTAVYYCTRLGGYDEGDAMDSWGQGTTVTVSS VL: DIVMTQTPLSLSVTPGQPASISCKSSQSLLESDGKTYLNWYLQKPGQSPQLLIYLVSILDSGVPDRFSGSGSGTDFTLKISRVEAEDVGVYYCLQATHFPQTFGGGTKVEIKR |
| 2.3 | HzTFPI4F36 HC-Y59F, A60P (antibody, human IgG4 S228P, kappa, name in Kabat numbering, V domains shown, Mutated CDR-grafted heavy chain with wild type CDR-grafted light chain; Kabat numbering) VH: EVQLVESGGGLVKPGGSLRLSCAASGFTFSNYAMSWVRQAPGKGLEWVSTISRSGSYSYFPDSVKGRFTISRDNAKNSLYLQMNSLRAEDTAVYYCARLGGYDEGDAMDSWGQGTTVTVSS VL: DIVMTQTPLSLSVTPGQPASISCKSSQSLLESDGKTYLNWYLQKPGQSPQLLIYLVSILDSGVPDRFSGSGSGTDFTLKISRVEAEDVGVYYCLQATHFPQTFGGGTKVEIKR |
| 0.88 | HzTFPI4F36 HC-FR2 (antibody, human IgG4 S228P, kappa, name in Kabat numbering, V domains shown, Mutated CDR-grafted heavy chain with wild type CDR-grafted light chain; Kabat numbering; also called patch mutant in HC FR2) VH: EVQLVESGGGLVKPGGSLRLSCAASGFTFSNYAMSWVRQTPEKRLEWVSTISRSGSYSYYADSVKGRFTISRDNAKNSLYLQMNSLRAEDTAVYYCARLGGYDEGDAMDSWGQGTTVTVSS VL: DIVMTQTPLSLSVTPGQPASISCKSSQSLLESDGKTYLNWYLQKPGQSPQLLIYLVSILDSGVPDRFSGSGSGTDFTLKISRVEAEDVGVYYCLQATHFPQTFGGGTKVEIKR |
| > 0.03 | HzTFPI4F36 HC-FR2, CDR2 (antibody, human IgG4 S228P, kappa, name in Kabat numbering, V domains shown, Mutated CDR-grafted heavy chain with wild type CDR-grafted light chain; Kabat numbering) VH: EVQLVESGGGLVKPGGSLRLSCAASGFTFSNYAMSWVRQTPEKRLEWVSTISRSGSYSYFPDSVQGRFTISRDNAKNSLYLQMNSLRAEDTAVYYCARLGGYDEGDAMDSWGQGTTVTVSS VL: DIVMTQTPLSLSVTPGQPASISCKSSQSLLESDGKTYLNWYLQKPGQSPQLLIYLVSILDSGVPDRFSGSGSGTDFTLKISRVEAEDVGVYYCLQATHFPQTFGGGTKVEIKR |
| 2.5 | HzTFPI4F36 HC-K64Q (antibody, human IgG4 S228P, kappa, name in Kabat numbering, V domains shown, Mutated CDR-grafted heavy chain with wild type CDR-grafted light chain; Kabat numbering) VH: EVQLVESGGGLVKPGGSLRLSCAASGFTFSNYAMSWVRQAPGKGLEWVSTISRSGSYSYYADSVQGRFTISRDNAKNSLYLQMNSLRAEDTAVYYCARLGGYDEGDAMDSWGQGTTVTVSS VL: DIVMTQTPLSLSVTPGQPASISCKSSQSLLESDGKTYLNWYLQKPGQSPQLLIYLVSILDSGVPDRFSGSGSGTDFTLKISRVEAEDVGVYYCLQATHFPQTFGGGTKVEIKR |
| 5.5 | HzTFPI4F36 HC-Y59F (antibody, human IgG4 S228P, kappa, name in Kabat numbering, V domains shown, Mutated CDR-grafted heavy chain with wild type CDR-grafted light chain; Kabat numbering) VH: EVQLVESGGGLVKPGGSLRLSCAASGFTFSNYAMSWVRQAPGKGLEWVSTISRSGSYSYFADSVKGRFTISRDNAKNSLYLQMNSLRAEDTAVYYCARLGGYDEGDAMDSWGQGTTVTVSS VL: DIVMTQTPLSLSVTPGQPASISCKSSQSLLESDGKTYLNWYLQKPGQSPQLLIYLVSILDSGVPDRFSGSGSGTDFTLKISRVEAEDVGVYYCLQATHFPQTFGGGTKVEIKR |
| 5.8 | HzTFPI4F36 HC-Q3E (antibody, human IgG4 S228P, kappa, name in Kabat numbering, Mutated CDR-grafted heavy chain with wild type CDR-grafted light chain; human kappa/IgG4(S241P)) heavy: not shown light: DIVMTQTPLSLSVTPGQPASISCKSSQSLLESDGKTYLNWYLQKPGQSPQLLIYLVSILDSGVPDRFSGSGSGTDFTLKISRVEAEDVGVYYCLQATHFPQTFGGGTKVEIKRTVAAPSVFIFPPSDEQLKSGTASVVCLLNNFYPREAKVQWKVDNALQSGNSQESVTEQDSKDSTYSLSSTLTLSKADYEKHKVYACEVTHQGLSSPVTKSFNRGEC |
| 3 | HzTFPI4F36 HC-S49A (antibody, human IgG4 S228P, kappa, name in Kabat numbering, V domains shown, Mutated CDR-grafted heavy chain with wild type CDR-grafted light chain; Kabat numbering) VH: EVQLVESGGGLVKPGGSLRLSCAASGFTFSNYAMSWVRQAPGKGLEWVATISRSGSYSYYADSVKGRFTISRDNAKNSLYLQMNSLRAEDTAVYYCARLGGYDEGDAMDSWGQGTTVTVSS VL: DIVMTQTPLSLSVTPGQPASISCKSSQSLLESDGKTYLNWYLQKPGQSPQLLIYLVSILDSGVPDRFSGSGSGTDFTLKISRVEAEDVGVYYCLQATHFPQTFGGGTKVEIKR |

target: T1, recombinant full length human tissue …; test: SPR (Biacore), recombinant human TFPI over the mAb
Procedure: Binding interaction analysis was obtained by Surface Plasmon Resonance in a Biacore 3000. Capture of the relevant monoclonal antibody at a fixed concentration was obtained with immobilised mouse anti-IgG. Different concentrations of TFPI were tested.
These were followed by a direct binding kinetic procedure on selected mAb constructs, with the monoclonal antibody covalently coupled via free amine groups to the carboxymethylated dextrane membrane (CM5) on the sensor chip surface.

| Kd [nM] | kon [M⁻¹ s⁻¹] | Binder |
| --- | --- | --- |
| 0.0162 | 8.88e+06 | mouse/human chimera version of the anti-TFPI4F36 antibody (ChimTFPI4F36) (antibody, IgG4, V domains shown, also called Chimeric TFPI4F36; chimeric anti-TFPI4F36) VH: EVELVESGGGLVKPGGSLKLSCAASGFTFSNYAMSWVRQTPEKRLEWVATISRSGSYSYFPDSVQGRFTISRDNAKNTLYLQMSSLRSEDTAMYYCTRLGGYDEGDAMDSWGQGTSVTVSS VL: not shown |
